The subject of this data set is infectious human adenovirus 2 (HAdV-2, whole virus) (Human adenovirus 2). The experiment in a line: ELONA. The following applies: SELEX buffer 20 mM Tris, 100 mM NaCl, 2.5 mM MgCl2, pH 7.2, room temperature.

The Kd is the constant that tells how readily two partners part at equilibrium. Low readings indicate tighter binding, high ones weaker binding. Take “GGCTGCAGCTGAAGCACTGGTTTTGAGTCAAACCCAGACGATGGA [Apt-HAdV]”: the equilibrium dissociation constant (Kd) was found to be 900 pM.
